Legend:
[1] = target: the molecule itself; assay: native gel or EMSA; endpoint polymerisation: 0.1 mg/ml heated for 4 h (55°C, or 45-63°C) without antibody during heating; bis-Tris non-denaturing PAGE, Coomassie; polymerisation read as loss of the monomer band
[2] = target: T1, α1-antitrypsin, plasma-derived wild-type (M) (UniProt P01009 25-418); assay: progress curves of intrinsic protein fluorescence (peptide incorporation) + native gel or EMSA; as a5, in the presence of mAb4B12; conditions: both partners purified
T1 construct: alpha1-antitrypsin, wild-type 'M' allele, plasma-derived; also called α1-AT; α1-ATWT; source: plasma-derived

[3] = target: α1-antitrypsin, plasma-derived wild-type (M) (UniProt P01009); assay: as above

B1: α1-AT_(79-306), disulphide variant Gly79Cys/Leu306Cys (natural protein, UniProt P01009 25-418, looked up)
chain: EDPQGDAAQKTDTSHHDQDHPTFNKITPNLAEFAFSLYRQLAHQSNSTNIFFSPVSIATAFAMLSLGTKADTHDEILECLNFNLTEIPEAQIHEGFQELLRTLNQPDSQLQLTTGNGLFLSEGLKLVDKFLEDVKKLYHSEAFTVNFGDTEEAKKQINDYVEKGTQGKIVDLVKELDRDTVFALVNYIFFKGKWERPFEVKDTEEEDFHVDQVTTVKVPMMKRLGMFNIQHSKKLSSWVLLMKYLGNATAIFFLPDEGKLQHLENELTHDIITKFLENEDRRSASLHLPKLSITGTYDLKSVLGQCGITKVFSNGADLSGVTEEAPLKLSKAVHKAVLTIDEKGTEAAGAMFLEAIPMSIPPEVKFNKPFVFLMIEQNTKSPLFMGKVVNPTQK
modifications: disulphide 79-306 present in ~90% of molecules
notes: alpha1-antitrypsin, 'M' allele, engineered disulphide between helix C and the C-terminus of helix I, on the Cys232Ser background; also called 79-306 double mutant; source: E. coli XL-1 blue, pQE-30-based plasmid, purified
Does B1 bind [1]?
Result: binds

B2: 11-mer RCL peptide Ac-SEAAASTAVVI-NH2 (peptide)
peptide: Ac-SEAAASTAVVI-NH2
notes: model peptide corresponding with the reactive centre loop (RCL) of anti-thrombin; source: synthetic peptide
Which “fold increase in the rate of peptide incorporation with mAb4B12 against the non-antibody-bound control” value [2] does the source give for B2 here?
Its value is 2.5 fold.

How did the fold increase in the rate of peptide incorporation with mAb4B12 against the non-antibody-bound control [3] turn out when Ac-FLAA-NH2 [4-mer peptide Ac-FLAA-NH2] was run?
Its fold increase in the rate of peptide incorporation with mAb4B12 against the non-antibody-bound control is 1.8 fold.

From article PMC5264506, “An antibody that prevents serpin polymerisation acts by inducing a novel allosteric behaviour” (Biochemical Journal, 2016)
